From the nanobody polyreactivity screen of Harvey et al. (2022)

Experiment: yeast display, Sf9 membrane polyspecificity reagent, FACS + sequencing; frameworks hold sequencing errors
In short: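 Synthetic nanobody libraries on Saccharomyces cerevisiae BJ5465 were galactose-induced for 36–48 hours, stained 1 hour at 4 °C with 10% biotinylated, detergent-solubilized Sf9 membrane reagent and enriched on streptavidin microbeads. FACS then separated cells into low and high (top ~1%) gates by anti-HA (expression) and streptavidin (reagent binding) fluorescence. Genes were colony-PCR amplified, MiSeq 2 × 250 sequenced and CDR-length filtered. A clone's polyreactivity label is that of its gate of origin.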
For “QVQLVESGGGLVQAGGSLRLSCAASGFIFWEYAMGWYRQAPGKERELVAVISYRGGSTYYADSVKGRFTISRDNAKNTVYLQMNSLKPEDTAVYYCNADTIPDGEDRYDYWGQGTQVTVSS”, the “polyreactivity (PSR sort gate)” value was “low polyreactivity”.
For “QVQLVESCGGLVQAGGSLRLSCAASGYIFLYNTMGWYRQAPWKERELVAAISFRAGSTYYADSVKGRFTISRDNAMNTVYLQMNSLKPEDTAVYYCAKRQRYYLYGHDYWGQGTQVTVSS”, the “polyreactivity (PSR sort gate)” value was “low polyreactivity”.
With “QVQLVESGGGLVQAGGSLRLSCATSGRIFGTNAMGWYRQAPGKERELVADITSGGSTNYADSVKGRFTISRDNAKNTVYVQMNSLKPEDTAVYYCAADVIGDLRWYRDEYWGQGTQVTVSS” the “polyreactivity (PSR sort gate)” value was “low polyreactivity”.
For “QVQLVESGGGLVQAGGSLRLSCAASGFTLIHYAMGWYRQATGKERELVAGITTSGGSTYYADSVKGRFTFSRDNAKNTVYLQMTSLKPEDTAVYYCNRLTRRWYSLRSYDYWGQGTQVTVSS”, the “polyreactivity (PSR sort gate)” value was “high polyreactivity”.
For “QVQLVESGGGLVQAGGSLRLSCAASGFTFPTYAMVWYRQAPGKERELVAAITRGGSTYYADSVKGRFTISRDNAKYTVYLQMNSLKPEDTAVYYCAADDPWYEEDYWGQGTQVTVSS”, the “polyreactivity (PSR sort gate)” value was “low polyreactivity”.
In the case of “QVQLVESGGGLVQAGGSLRLSCAASGSTFGGNAMGWYRQAPGKEREFVAAIRFSGGSTYYADSVKGRFTISRDNAKNTVYLQMNSLKPEDTAVYFCAKRGYGHLIPIAYEYWGQGTQVTVSS”, the “polyreactivity (PSR sort gate)” value is reported as “low polyreactivity”.
With “QVQLVESGGGLVQAGGSLRLSCAASGRIFGGYAMGWYRQAPGKEWEVVAAIRDSGRTYYADSVKGRFTISRDNAKNTVYLQMNSLKPEDTAVYYCAADAHSSYSPFRWYDYWGQGTQVTVSS” the “polyreactivity (PSR sort gate)” value was “low polyreactivity”.
For “QVQLVESGGGLVHAGGSLRLSCAASGSIFQYNAMGWYRQAPGKERELVATISSGGSTNYADSVKGRFTISRDNAKNTVYLQMNSLKPEDTAVYYCAAVVIVFYYAPNYWGDIEYGYWGQGTQVTVSS”, the “polyreactivity (PSR sort gate)” value was “low polyreactivity”.
With “QVQLVESGVGLVQAGGSLRLSCAASGSIFYRYAMGWYRQAPGKEREFVARITSSGGSTNYADSVKGRFTISRDNAKNTVYLQMNSLKPEDTAVYYCAKRGWSSYGRYDSWGQGTQVTVSS” the “polyreactivity (PSR sort gate)” value was “high polyreactivity”.
For “QVQLVESGGGLVQAGGSLRLSCAASGRTFHIYAMGWYRQAPGKERELLAAINYSGGSTYYADSVKGRFTISRDNAKNSVYLQMNSLKPEDTAVLYCAAVVYNVPWWFEYDYWGQGTQVTVSS”, the “polyreactivity (PSR sort gate)” value was “low polyreactivity”.
In the case of “QVQLVESGGGLVQAGGSLRLSCAASGRTFKGYAMGWYRQAPGKEREFVATITSRGDRTYYADSVKGRFTISRDNAKNTVSLQMNSLKPEDTAVYYCNARYYWKQAADYNYWGQGTQVTVSS”, the “polyreactivity (PSR sort gate)” value is reported as “low polyreactivity”.
With “QVQLVESGGGLVQAGGSLRLSCAPSGSIFRVYAMGWYRQAPGKERELVAAITIGTSTNYADSVKGRFTISRDNAKNTVYLQMNSLKPEDTAVYYCAAEWSYNLDSIASSPTSYDYWGQGTQVTVSS” the “polyreactivity (PSR sort gate)” value was “low polyreactivity”.
With “QVQLVESGGGLVQAGGSLRLSCAASVSIFFSYAMGWYRQAPGKERELVASITWSGDTTYYADSVKGRFTISRDNAKNTVYLQMNSLKPEDTAVYYCAAVNRGGYDYWGQGTQVTVSS” the “polyreactivity (PSR sort gate)” value was “low polyreactivity”.
In the case of “QVQLVESGGGLVQAGGRLRLSCDASGSTFVKYAMGWYRQAPGKERELVARISSSGGSTYYADSVKGRFTISRDNAKNTVFLQMNSLKPEDTAVYYCAAPSLIAKYDYWGQGTHVTVSS”, the “polyreactivity (PSR sort gate)” value is reported as “high polyreactivity”.
With “QVQLLESGGGLVQAGGSLRLSCAASGSIFVKYDMGWYRQAPGKDRELVAAIRSGASTTYADSVKGRFTISRDNAKITVYLQMNSLKPEDTAVYYCAADQRGWGYTYGKGGDYWGQGTQVTVSS” the “polyreactivity (PSR sort gate)” value was “low polyreactivity”.
In the case of “QVQLVESGGGLVQAGGSLRLSCAASGRNFWLNAMGWYRPEPGKERELVATISRGGSTNYADSVKGRFTISRDNAKNTVYLQMNSLKPEDTAVYYCAARPYSYYWNSELDYWGQGTQVTVSS”, the “polyreactivity (PSR sort gate)” value is reported as “high polyreactivity”.
With “QVQLVESGGGLVQAGGSLRLSCAASGSIFDIYAMGWYRQAPGKERELVAAISWNGGDTTYADSVKGRFTISRDNEKNTVYLQMNSLKPEYTAVYYCAADLGYWVADYYWGQGTQVTVSS” the “polyreactivity (PSR sort gate)” value was “high polyreactivity”.
With “QVQLVESGGGLVQAGGSLRLSCAASGSTIDYYTMGWYRQEPGKERELVAAISWSGGNTYYADSVKGRFTISRDNAKNTVYLQMNSLKPEDTAVYYCNRVNAYWLRYDYWGQGTQVSVSS” the “polyreactivity (PSR sort gate)” value was “high polyreactivity”.
With “QVQLEESGGGLVQAGGSLRLSCAASGSILVAYAMGWYRQAPGKERELVAAISSVGNTYYADSVKGRFTISRDNAKNTVYLQMNSLKPEDTAVYYCNAVYRVWYAEWSTVGSPHDYWGQGTQVTVSS” the “polyreactivity (PSR sort gate)” value was “low polyreactivity”.
For “QVQLVESGRGLVQAGGSLRLSCAASGFIFRDYAMGLYRQAPGKVRELVAAISSRGGGTSYADSVKGRFTITRDNAKNTVYLQMNSLKPEDTAVYYCNKGYGRYVVTAYDYWGQGTQVTVSS”, the “polyreactivity (PSR sort gate)” value was “high polyreactivity”.
With “QVQLVESGGGLVQAGGSLRLSCAASGRIFYNYSMGWYRQAPGKEREVVAAISGSGGSTYYADSVKGRFTISRDNAKNTVYLQMNSLKPEDTAVYYGSTSGGQYYSRNFEYWGQGTQVTVSS” the “polyreactivity (PSR sort gate)” value was “low polyreactivity”.
For “QFQLVESGGCLVQAGGSLRISSASSGSTLANYAMGWYRQAPGKEREFVAAINSGGSTYYADSVKGRFTISRDIAKNTVYLQMNSLKPEDTAVYYCAARYASPRYKSKMDYWGQGTQVTVSS”, the “polyreactivity (PSR sort gate)” value was “high polyreactivity”.
With “QVQLVESGGGLVQAGGSLRLSCAASGRIFYAYAMGWYRQEPGKERELVASISGSGGSTYYADSVKGRFTISRDNAKNTVYLQMNRLKPEDTAVYYCAKRYPFYSSGLSTYNYWGQGTQVTVSS” the “polyreactivity (PSR sort gate)” value was “high polyreactivity”.
With “QVQLVESGGGLVQAGGSLRLSCAASGRTSYRYAMGWYRQAPGKERELVAAISWSGGSTYYADSVKGRFTISRDNAKNTVSLQMNSLKPDDTAVYYCNARQHQVRWWLREFDYWGQGTQVTVSS” the “polyreactivity (PSR sort gate)” value was “low polyreactivity”.
With “QVQLVESGGGLVQAGGSLRLSCAASGSTFGVNTMGWYRQAPGKERELVAAITSRGGSTYYADSVKGRFTISRDNAKNTVYLQMNSLKPEDTAVYYCAAEASYYRIRRYYWGQGTQVTVSS” the “polyreactivity (PSR sort gate)” value was “high polyreactivity”.
With “QVQLVESGGGLVQAGGSLRLSSAASGSPFIYYVMGWYRQAPGKERELVAAITRSGSTNYADSVKGRFTISRDNAKNTVYLQMNSLKPEDTAVYYCAAERALSRYGYWGHGTQVTVSS” the “polyreactivity (PSR sort gate)” value was “low polyreactivity”.
For “QVQLLESGGGLVQAVGSLRLSCAASGIIFWVNAMGWYRQAPGKERELFAAIRSDGSTKYADSVKGRFTISRDNAKNTVYLLMNSLKPEDTAHYYCAKRDYSYTWLRDYYYWGQGTQVTVSS”, the “polyreactivity (PSR sort gate)” value was “low polyreactivity”.
In the case of “QVQLVESGGGLVQAGGSLRLSCAASGRTFHDYAMGWYRQAPGKERELVASISSGGSTYYADSVKGRFTISRDNAKNTVYLQMNSLKPEDTAVYYCAAYYYSTLYYRYDYWGQGTQVTVSS”, the “polyreactivity (PSR sort gate)” value is reported as “low polyreactivity”.
In the case of “QVQLVESGGGLVQAGGSLRLSCAASGFTIWWYAMRWYRQATGKERELVATITSGGRTYYADSVKGRFTISRDNAKNTDYLQMNSLKPEDTAVYYCAAESEVGYVYDPMYYWGQGTQVTVSS”, the “polyreactivity (PSR sort gate)” value is reported as “high polyreactivity”.
In the case of “QVQLVESGGGLVQAGGSLRLSCAASGRIFNPNAMGWYRQAPGKERELVAAITSGDSTNYADSVKGRFTISRDNAKNTVYLQMNSLKPEDTAVYYCAAGPSKRPPWLRQGGYDYWGQGTQVTVSS”, the “polyreactivity (PSR sort gate)” value is reported as “low polyreactivity”.
In the case of “QVQLVESGGGLVQAGGSLRLSCAASGIIFDDNAMGGYRQAPGKERELVAAITYSGGSTYYADSVKGRFTISRDKAKNTVYLQMNSLKPEDTAVYYCAADNRPIVGSYYYWGQGTQVTVSS”, the “polyreactivity (PSR sort gate)” value is reported as “low polyreactivity”.
In the case of “QVQLVESGGGLVQAGGSLRLSCAASGFTFRYYAMGWYRQAPGKEWELVARITWNGGRTYYADSVKGRFTISRDNAKNTLYLQMNSLKPEDTAVYYCAARGFYRSYYWGQGTQVTVSS”, the “polyreactivity (PSR sort gate)” value is reported as “high polyreactivity”.
For “QVQLVETGGGLVQAGGSLRLSCAASGIIIQNNAMGWYRQAPGTERELVAAISSSGGRTYYADSVKGRFTISRDNAKNTVYLQMNSLKPEDTEVYYCNKRWRGSYDYWGQGTQVTVSS”, the “polyreactivity (PSR sort gate)” value was “high polyreactivity”.
For “QVQLEESGGGLVQAGGSLRLSCAASGGTFTNYAMGWYRQAPGTERELVAAITDSGATTYYADSVKGRFTISRDNAKNTVYLQMNRLKPEDNAVYYCNAELDLYTDFDYWGQGTQVTESS”, the “polyreactivity (PSR sort gate)” value was “low polyreactivity”.
For “QVQLGESGGGLVQAGGSLRLSCAASGRIFRWYAMGWYRQAPGKVRELVAAISRSGTSTYYADSVKGRFTISRDNAKNTVYLQMNSLKPEDTAVYYCAADAVIFGMDYWGQGTQVTVSS”, the “polyreactivity (PSR sort gate)” value was “low polyreactivity”.
With “QVQLVESGGGLVQAGGSLRISCAASGFTFTYYTMGWYRQAPGKERELVAAINRSGTSTYYADSVKGRFTISRDNAKNTVYLQMNSLKPEDTAVYYCAAKFTTGYYYGVPRDYWGQGTQVTVSS” the “polyreactivity (PSR sort gate)” value was “high polyreactivity”.
For “QVQLVESGGGLVQAGGSLRLSCAASGRIFDTYVMRWYRQAPGKERELVAAISGSGGSTYYADSVKGRFTISRDTAKNTVYLQMNSLKPEDTAVYYCAAVVLGRLLGFRGDYNYWGQGPQVTVSS”, the “polyreactivity (PSR sort gate)” value was “high polyreactivity”.
In the case of “QVQLLESGGGLVQAGRSLRLSCAPSGIIFRVYAMGWYRQAPGKERELVAAISSSGGNTYYADSVKGRFTISRDNAKNTVYLQLNSLKPEDTAVYYCAAPYGQLFTQGTWYEYWGQGTQVTVSS”, the “polyreactivity (PSR sort gate)” value is reported as “low polyreactivity”.
In the case of “QVQLVESGGGLVQAGGSLRLSSAASGRIFNWYTMGWYRQSPGKERELVAAITSGGTTTYYADSVKGRFTISRDNAKNTVYLQMTSLKPEDTAVYYCAARRGGRRGYDYWGQGTQVTVSS”, the “polyreactivity (PSR sort gate)” value is reported as “high polyreactivity”.
In the case of “QVQLVESGGGLVQAGGSLRLSCAASGSTFLRNAMGWYRQAPGKQGSWVATISYDGDSTYYADSVTGRFTISRDNAKNTVYLQMNSLKPDDPAVYYCAASYSQTFWDKDDYWGQGTQVTVSS”, the “polyreactivity (PSR sort gate)” value is reported as “low polyreactivity”.
With “QVQLVESGGGLVQPGGSLRLSCAASGRTFTKNAMGWYRQAPGKERELVAAISISGGSTYYADSVKGRFTISRDNAKNTVYLLMNSLKPEDTAVYYCAADVVTYLSYTLDYWGQGTQVTVSS” the “polyreactivity (PSR sort gate)” value was “low polyreactivity”.
In the case of “QVQLVESAGGLVQAGGSLRLSCYASGSIFTRNAMGWYRQAPGKERELVASISYSGGNTYYADSVKGRFTISRDNAKNTVYLQMNSLKPEDTAVYYCAALYSVYRDGYYWGQGTQVTVSS”, the “polyreactivity (PSR sort gate)” value is reported as “high polyreactivity”.
With “QVQLVESGGVLVQSGVSLRLTCAASGITFNYNAMGWDSQAPGKERELVAAIRGSDSTTYYADSVKERFTISRDNAKNTVYLQMNSLKPEDTAVYYCAADYVQGFGFYYQWHYDYWGQGTQVTVSS” the “polyreactivity (PSR sort gate)” value was “low polyreactivity”.
